Assay results reported in patent US20240043859A1, “HERBICIDE-RESISTANT PROTEIN, AND GENE AND USE THEREOF” (QINGDAO KINGAGROOT CHEMICAL COMPOUND CO., LTD., priority 2020, published 2024).
“Also recorded” adds a separate entry of the source.

Tests used:
[1] = assay type: cell-based, Escherichia coli
Protocol: To transform the plasmids to be tested, an AAD12-expressing plasmid and a blank control plasmid pET15b were respectively transformed into the protein expression E. coli BL21(DE3) strains. A monoclone was selected and inoculated in a 10 ml centrifuge tube with 3 ml LB medium, and cultivated at 37° C., 200 rpm for 6-8 hours. […] The temperature was switched to 28° C. and the cultivation continued overnight. In the next morning, 200 μL of each bacteria solution was taken and centrifuged to precipitate thallus, 180 μL of the supernatant was taken and added in a 96-well plate, and 20 μL of borate buffer of pH 10 was added. Then the mixture was added with 2 μL of 8% potassium ferricyanide and mixed well, followed by adding 2 μL of 2% 4-aminoantipyrine, and placed at room temperature for 5 min to observe the color and detect the A510 value. […]

[2] = Chromogenic reaction of degrading herbicides in bacteria: 2,4-D; assay type: cell-based, Escherichia coli; details: recombinant E. coli expressing the gene, 2,4-D added to the medium, red = phenols
Protocol: To transform the plasmids to be tested, an AAD12-expressing plasmid and a blank control plasmid pET15b were respectively transformed into the protein expression E. coli BL21(DE3) strains. A monoclone was selected and inoculated in a 10 ml centrifuge tube with 3 ml LB medium, and cultivated at 37° C., 200 rpm for 6-8 hours. The culture medium was added with 0.1 mM IPTG and 2 mM α-ketoglutaric acid, and then 0.5 mM 2,4-D. The temperature was switched to 28° C. and the cultivation continued overnight. In the next morning, 200 μL of each bacteria solution was taken and centrifuged to precipitate thallus, 180 μL of the supernatant was taken and added in a 96-well plate, and 20 μL of borate buffer of pH 10 was added. Then the mixture was added with 2 μL of 8% potassium ferricyanide and mixed well, followed by adding 2 μL of 2% 4-aminoantipyrine, and placed at room temperature for 5 min to observe the color and detect the A510 value.
The bacteria solution also appeared red when 2,4-D was directly added into the medium of AAD12-expressing bacteria, as shown in FIG. 1.
2,4-D was added into these bacteria solutions of AAD gene-expressing recombinant E. coli and cultivation was continued for color development.

[3] = test system: Arabidopsis thaliana; assay: Herbicide resistance of transgenic Arabidopsis thaliana seedlings on plate medium (root growth); assay type: in vivo; details: Arabidopsis overexpressing the gene
Protocol: Expression in Arabidopsis thaliana was regulated by its AtUbi10 Arabidopsis thaliana ubiquitin promoter and the MAS (mannopine synthase) terminator. Hygromycin resistance gene (HygR=hpt) served as the selection marker.
Preparation of Agrobacterium infection solution: An activated Agrobacterium (GV3101) monoclone was picked and inoculated in 30 ml YEP liquid medium [yeast powder 10 g/L, tryptone 10 g/L, NaCl 5 g/L, 25 mg/L Rifampicin and 50 mg/L Kanamycin], shaking-cultured at 200 rmp/min, 28° C. overnight until the OD600 was about 1.0-1.5, then centrifuged at 6000 rmp/min for 10 min to collect the bacteria, and the supernatant was discarded. Arabidopsis thaliana infection solution (sucrose 50 g/L, Silwet L-77 300 μL/L, no need to adjust pH) was used to resuspend the cells to OD600=0.8 for later use.
Genetic transformation of Arabidopsis thaliana by flower dipping: Before transformation of Arabidopsis thaliana plants, attentions were paid to whether the plants were growing well, the inflorescences were abundant, and no stress response occurred. The first transformation was performed when plants were about 20 cm high. Plants could be properly watered if the soil was dry. The grown siliques were cut off with scissors the day before transformation. The inflorescences of the plants to be transformed were soaked in the above-mentioned Agrobacterium solution for 30 seconds to 1 minute, which was stirred gently during the period. And a layer of liquid film should appear on the infiltrated plant. The transformed plants were cultured in a dark environment for 24 hours, and then taken out and grown in a normal light environment. A second transformation could be performed in the same way a week later.
Seeds were treated with disinfectant for 5 min, washed with sterile water for 5 times and then one part was spread on MS transgenic screening medium (containing 30 μg/mL hygromycin, 100 μg/mL carbenicillin) to screen transgenic seedlings, and the other part was spread on MS medicated medium [containing 250 μg/mL Cefotaxime sodium and 0.3 μM 2,4-D] to screen herbicide-resistant seedlings at mean time. The petri dish spread with seeds was placed at 4° C. for vernalization for 3 days, and taken out to a illumination incubator for cultivation (temperature of 22° C., 16 hours of light, 8 hours of darkness, light intensity of 100-150 μmol/m^2/s, humidity of 75%). After one week, it was observed that the roots of the wild-type control seedlings were not elongated and their growth was inhibited, while the transgenic seedlings had normal root growth, showing drug resistance. The transgenic positive seedlings and herbicide-resistant seedlings were photographed and transplanted into small pots filled with soil for cultivation.
The transgenic lines with the nine vectors, pQY2309, pQY2310, pQY2311, pQY2312, pQY2313, pQY2314, pQY2315, pQY2316 and pQY2317, overexpressing AAD gene in the T2 generation were further tested on plate medium for their resistance to 2,4-D, 2,4-DB sodium and MCPA herbicide. Two events were tested for each transformant.

Row | Molecule | Chromogenic reaction of degrading herbicides in bacteria: MCPA [1] | Chromogenic reaction of degrading herbicides in bacteria: 2,4-D [2] | Resistance of transgenic Arabidopsis thaliana: 2,4-D [3] | further results
1 | QYD54: AAD-like enzyme, SEQ ID NO. 107 (protein, Synthetic polypeptide, QYD54, D54) MARMFDIAPLDATFGAVVTGVKVTRIDDATWRDLHAAWLEYALLIFPGQFLSRAEQIAFAKRFGPLEFEMAPISNVKADGTIRIEADNDDVVKVLKGNMGWHADSTYMPVQAKGAVFSAEVVPGEGGRTGWADMRAAYDALDAARRVRVESLTAYHSLYYSQAKLGHQPKRGSDYSGYGFHDGPVPRRPLVKVHPETGRKSLLIGRHAHNIPGMDVAESTQFLESLVDFACQPPRIYHHQWTAGDAVVWDNRCLLHRATPWDMTKPRVMWHSRIAGDPVSEASLG | Yes | Yes | – | Chromogenic reaction of degrading herbicides in bacteria: 2,4-D ([2]; listed as D54): could degrade 2,4-D; also recorded: capable of degrading 2,4-D
2 | QYD33: AAD-like enzyme, SEQ ID NO. 65 (protein, Synthetic polypeptide, QYD33, D33) MSEHFDVEPLDASFGARITGLKLTEMSDAAFDALYETWLEHGLLLFPDQHMEPEAQVDVARRFGPLEVKLFAISNLKDDGSVRTSDEDDLVKILKGNMGWHHDSTYMPLQAKGAVFSAHVVPSEGGETGFADMRQAWDALDDDMKRRLEGLTALHSLHYSQMKAGFRRKEKDSEYIGYGLDERPPVRRQMVKVHPETGRKSLLVGRHAFGVSGMSEKESEEFVDGLNEFAGSGDWTYHHKWTPGEVVLWDNRCLMHRACPWDMTKPRVMYHSRIAGDPVSEAEVAA | NO | Yes | – | Chromogenic reaction of degrading herbicides in bacteria: 2,4-D ([2]; listed as D33): red reactions
3 | QYD62: AAD-like enzyme, SEQ ID NO. 123; 100.00% identical to US20140141044-13793 (for medical field) (protein, Synthetic polypeptide, QYD62, D62) MTIAIRQLHKHFVGEVSGLDLRKPLTADEARDIEAAMDKYAVLVFHDQDITDEQQMAFALNFGQREDARGGTVTKAKDYRLQSGLNDVSNLGKDGKPLAKDSRTHLFNLGNCLWHSDSSFRPIPAKFSLLSARVVNPKGGNTEFADMRAAYDALDDETKTEIEDLVCEHSLMYSRGSLGFTEYTDEEKEMFKPVLQRLVRTHPVHRRKSLYLSSHAGKVVGMSVPEGRLLLRDLNEHATQPEFVYVHKWKLHDLVMWDNRQTMHRVRRYDQSQPRDMRRATVAGTEPTVQQQAAE | Yes | Yes | – | Chromogenic reaction of degrading herbicides in bacteria: 2,4-D ([2]; listed as D62): could degrade 2,4-D; also recorded: capable of degrading 2,4-D
4 | QYD35: AAD-like enzyme, SEQ ID NO. 69 (protein, Synthetic polypeptide, QYD35, D35) MSARPFTVEPLPATFGARITGLDLAALDDATFAALYDAWLEYALLIFPGAGLSTAEQVTFARRFGDMEFDIAPLSNVRKDGSLRADDGTDDVVKVLRGNMGWHADSTYMPVQAKGAVFSAHVVPEEGGETGWADMRAAYDALDDDLRRRIEGLSAHHSLVHSQARLGHAHGTDSEYSGYGFHDEAPLRPLVKVHPETGRRSLLIGRHAYGIPGLEETASERLLDELVDFACRPPRVYHHRWQVGDVVLWDNRCLLHRACPWDMSRPRVMYHSRIAGDPVTEAGLAGQSEQPSASGS | NO | Yes | – | Chromogenic reaction of degrading herbicides in bacteria: 2,4-D ([2]; listed as D35): red reactions
5 | QYD26: AAD-like enzyme, SEQ ID NO. 51 (protein, Synthetic polypeptide, QYD26, D26) MSEFIYTLPSHNRAASYSHIRVTPTTGAIGADVENLDLTRLSDEGFAELRQALLAHKVIFIRDQALSVADLERVTQHLGEFGREPYVTCMADHPHVVHVVKEASEKAPFVFGGAWHTDWTFQERPPAFTLLYGHDIPPYGGDTCYANLALAYEWLSPGMQALLENLDAVHSPEMAYGVNAKHNALLENMAINYGSDTSADERSHPLVTRHPETGKKVLFINPAYTTGIKGLRTEESRPLLDYLFKLATSEAFTCRMRWRQGTLAIWDNRSTWHMPVADYHGMRREMFRTTVIGEVPSR | Yes | Yes | Yes | Chromogenic reaction of degrading herbicides in bacteria: 2,4-D ([2]; listed as D26): red reactions
6 | QYD21: AAD-like enzyme, SEQ ID NO. 41 (protein, Synthetic polypeptide, QYD21, D21) MTTIETKPLTPCFGVEVSGMTLSEVSKGHDFARLRDLFEEHSALLFRAQEISNEEHMALAQLFGPIEDRKADERKPGEAFEVPEVSNVQKDGTTSGEMDLHTLNLKSNFLWHSDSTFLPTPALTNILIGRVVTTEGGATELASTRAAWAAMPEELKSRIRGRGIWHRYSHSRRKISPELAKLPMFNKWPDQHWSAVWPNPVNGREGLYIASHAFKVDGYDEAESQELLDELMAFCTQPEFTYAHQWNVGDVLIWDQRAVLHRGTPWPYEQPRTLSSICVSVTEADGIGSIRMPA | Yes | Yes | Yes | Chromogenic reaction of degrading herbicides in bacteria: 2,4-D ([2]; listed as D21): could degrade 2,4-D; also recorded: capable of degrading 2,4-D
7 | QYD32: AAD-like enzyme, SEQ ID NO. 63 (protein, Synthetic polypeptide, QYD32, D32) MSQMTFEPLSGPTFGARVHGVKLTAMDDAAFRELHDNWLEYGLLIVPEQFLTREEQIAFARRFGDLEFEIAEIGNMRDDGSLRPDDGSDEMMKINRGNMGWHHDSTYMPVQAKGAVFSAEIVPQEGGATGFADMRAAYDELDDAMKARIENLRAHHSLHHSQGKVGHKTKPVKDGKVNAGGTFGGYGLHDGPVSVRPLVKVHPETGRKNLLVGRHAYDIIGMSSEESEKLLQDLVDFACQPPRIYHHQWAPGDAVIWDNRRLMHQATPWPFDQARRMWHSRIAGDPATEAAMAA | NO | Yes | Yes | Chromogenic reaction of degrading herbicides in bacteria: 2,4-D ([2]; listed as D32): red reactions
